Publication PMC8494329

Target: 16055 NFL trimer (native flexibly linked HIV-1 Env stabilized trimer, clade C strain 16055) (HIV-1, clade C, strain 16055)

| Binder | IC50 of neutralisation of the autologous 16055 pseudovirus (TZM-bl cells); the mAb on Env of the virus [μg/mL] |
| --- | --- |
| VD20.5A4 Fab (Fab, V domains shown) VH: QVQLQESGPGLVKPSETLSLTCAVSGASISSNYWSWIRQPPGKGLEWIGRIYDPTDSTDYNPSLESRATISKDTSKNHFSLTLSSVTAADTAVYFCARGLWSGYFFWFDVWGPGVLVTVSS VL: DIQMTQSPSSLSASVGDSVTVTCRASQGIDKELSWYQQKPGKAPTLLIYAASSLQTGVSSRFSGSGSGTDYTLTISSLQPEDVATYYCLQDYATPYSFGQGTKVEIK | 0.005 |
| D11A.B5 Fab (Fab, V domains shown) VH: HLQLQESGPGLVKPSETLSLTCAVSGGSSSDYWWSWIRQPPGKGLEWIGRIDSIGNTYYNPSLRSRVTLSVDTSKNQFSLELTSVTAADTAVYYCARPYCAIGRCYESWGQGVLVTVSS VL: EVVFTQPHSVSGSPGQTVTISCTRTSGSIDSEYVQWYQQRPGSAPTIVIYRDNQRPSGVPDRFSGSIDSSSNSASLAISGLKSEDEADYYCQSSDDSYNWVFGGGTRLTVL | 3.68 |
